The values below come from patent publication US20260014245A1.

Experiment [1] concerns the target DPP4/CD26 on human CD3 expressing T cells (human) (UniProt P27487). The experiment is described as follows: flow cytometry of human PBMCs, MERS-RBD - AF488 against CD3 - PerCP-Cy5.
Experiment [2] deals with MERS-CoV RBD (wild type, amino acids G372-L588, AviTag, Twin Strep tag, 6xHis) (MERS-CoV). Briefly: rabbit DPP4.

DPP4/CD26 on human CD3 expressing T cells (human), sequence (P27487 whole entry, the tested form may be a part): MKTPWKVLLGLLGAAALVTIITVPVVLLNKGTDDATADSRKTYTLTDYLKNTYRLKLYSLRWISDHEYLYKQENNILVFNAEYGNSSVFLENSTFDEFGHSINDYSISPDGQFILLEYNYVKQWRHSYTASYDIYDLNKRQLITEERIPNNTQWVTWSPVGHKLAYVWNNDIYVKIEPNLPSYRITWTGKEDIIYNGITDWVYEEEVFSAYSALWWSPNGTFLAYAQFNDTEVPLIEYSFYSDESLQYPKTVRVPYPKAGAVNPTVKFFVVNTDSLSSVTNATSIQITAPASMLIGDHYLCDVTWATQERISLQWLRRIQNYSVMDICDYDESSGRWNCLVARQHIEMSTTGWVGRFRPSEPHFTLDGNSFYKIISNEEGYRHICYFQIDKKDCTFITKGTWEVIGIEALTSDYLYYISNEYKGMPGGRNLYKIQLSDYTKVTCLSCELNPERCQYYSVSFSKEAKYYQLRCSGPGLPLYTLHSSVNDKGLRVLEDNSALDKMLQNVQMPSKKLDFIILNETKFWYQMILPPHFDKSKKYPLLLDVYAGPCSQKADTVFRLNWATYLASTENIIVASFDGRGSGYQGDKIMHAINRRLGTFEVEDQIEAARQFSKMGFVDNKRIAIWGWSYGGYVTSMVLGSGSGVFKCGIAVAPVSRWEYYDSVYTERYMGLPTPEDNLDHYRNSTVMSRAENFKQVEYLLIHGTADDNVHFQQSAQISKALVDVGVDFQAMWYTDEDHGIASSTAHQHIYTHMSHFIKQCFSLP

In experiment [1], “MERS-CoV RBD (wild type, amino acids G372-L588, AviTag, Twin Strep tag, 6xHis) (ligand; other documents disagree on this pair)” returned a CD3+ MERS-RBD+ quadrant frequency (percent of gated DAPI- lymphocytes) of 4.92. Substance “recombinant rabbit DPP4 with a C-terminal 6xHis-tag (rbDPP4-His) (from UniProt A0A5F9CKR3 29-732) (receptor)” yielded a Kd in experiment [2] of 34.3 nM.
